These are literature values, as cited in PMC5487772.

The Kd is the free concentration of one partner at which half of the binding sites on the other are occupied at equilibrium, for simple one-to-one binding.

Series [1] concerns the target phosphacan (UniProt Q62656).
Series [2] addresses phosphacan (UniProt Q62656). This is another data set of the same source.

Where two headings read alike, the source gives them in different places.

UniProt Q62656, sequence (Q62656 25-1637): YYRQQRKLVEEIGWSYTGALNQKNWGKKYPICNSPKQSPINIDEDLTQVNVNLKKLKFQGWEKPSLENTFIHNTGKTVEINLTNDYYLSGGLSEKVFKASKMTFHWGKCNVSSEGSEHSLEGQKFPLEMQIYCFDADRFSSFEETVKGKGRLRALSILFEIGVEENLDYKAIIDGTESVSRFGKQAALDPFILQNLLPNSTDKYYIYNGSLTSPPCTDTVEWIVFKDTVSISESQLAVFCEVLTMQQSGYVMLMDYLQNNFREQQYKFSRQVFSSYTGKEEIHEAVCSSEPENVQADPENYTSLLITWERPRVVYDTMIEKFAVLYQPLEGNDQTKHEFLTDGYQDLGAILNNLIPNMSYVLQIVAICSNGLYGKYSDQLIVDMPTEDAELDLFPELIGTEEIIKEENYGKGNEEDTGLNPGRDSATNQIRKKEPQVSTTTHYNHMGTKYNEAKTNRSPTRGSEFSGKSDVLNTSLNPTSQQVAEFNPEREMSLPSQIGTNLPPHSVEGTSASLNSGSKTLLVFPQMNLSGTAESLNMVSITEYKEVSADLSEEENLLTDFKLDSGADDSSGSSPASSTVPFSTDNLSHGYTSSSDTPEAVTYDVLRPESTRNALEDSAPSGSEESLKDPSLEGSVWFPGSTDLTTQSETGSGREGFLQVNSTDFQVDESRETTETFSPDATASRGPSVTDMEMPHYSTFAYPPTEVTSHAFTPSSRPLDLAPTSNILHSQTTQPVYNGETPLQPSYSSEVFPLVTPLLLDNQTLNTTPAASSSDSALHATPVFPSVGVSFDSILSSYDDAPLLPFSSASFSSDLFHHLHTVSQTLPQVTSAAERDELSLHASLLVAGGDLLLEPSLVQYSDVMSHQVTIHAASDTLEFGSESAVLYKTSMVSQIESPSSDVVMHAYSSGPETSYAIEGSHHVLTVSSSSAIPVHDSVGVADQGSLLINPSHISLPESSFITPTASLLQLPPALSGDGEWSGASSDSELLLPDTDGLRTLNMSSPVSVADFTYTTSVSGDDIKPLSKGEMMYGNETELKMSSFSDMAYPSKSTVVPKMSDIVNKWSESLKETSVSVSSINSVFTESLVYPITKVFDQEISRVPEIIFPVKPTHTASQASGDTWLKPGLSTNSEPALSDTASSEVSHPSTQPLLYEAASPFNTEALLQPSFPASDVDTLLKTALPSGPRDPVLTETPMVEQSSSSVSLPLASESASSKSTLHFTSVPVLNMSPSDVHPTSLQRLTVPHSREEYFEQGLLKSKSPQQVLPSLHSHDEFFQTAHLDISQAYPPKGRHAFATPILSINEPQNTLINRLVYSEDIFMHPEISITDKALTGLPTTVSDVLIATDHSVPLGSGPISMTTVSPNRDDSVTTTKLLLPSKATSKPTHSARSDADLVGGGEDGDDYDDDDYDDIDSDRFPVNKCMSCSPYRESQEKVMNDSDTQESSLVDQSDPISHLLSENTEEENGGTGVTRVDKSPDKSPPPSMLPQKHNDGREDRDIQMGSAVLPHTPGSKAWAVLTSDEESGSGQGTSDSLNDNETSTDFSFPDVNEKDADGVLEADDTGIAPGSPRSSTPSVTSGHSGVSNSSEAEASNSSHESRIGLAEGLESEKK

On to N-CAM (from UniProt P13591), for which the Kd with phosphacan [1] is 0.5 nM. Regarding Ng-CAM (from UniProt Q03696), in the series with phosphacan [2], the Kd is 0.5 nM.
